# Test results: the DeepSol protein solubility set
# Test: soluble on expression in E. coli; label from the status in PepcDB or PDB records
row,Sequence,soluble on expression in E. coli
1,MAHHHHHHMSDAFEARMSAMRARLSSLCHTVEEQEVEQQQQRRSFEHRYFVEARAAGSAATPAATKPITSTATPPSSAPISRPVTSKSQVPRTDGISERDVNQVHSASRKDAAFGHHFGTSSPSASITRARAAKPGSGVNAMLQLARYHASGSWSEAVVTKDIVRFTGGRSSPVPKAPATIPPEAFAVNTGQDTTDSSPVPLMPCGVAGLHSYGFRERLPSPRRPTASLAANTVDLASRNGEGRTSQNTPREESCITAADTTIVDTMHADEATSFDAFRVVQERLRQKMMQLTTTSPHSVVPLSTRGAPAEFAVSDDATAPREELPHRGLTASRAVSDVDGSSPSPRPPPGTRAETATPTRSPDKDESSSHETAPLPQTTPRYQHGQGDTWTDVEVLPATTEPDTENATEARLFTHGSLHDSVVGSGDETTAVSREWQWSRCGVPSTKARTANVPRGVFDPTVRHVRVSRMPSSDAQLNPAAGEQRADSREYRRSPEAATAGRAHSDRGRSGRTTASIQHGVSSAPRRSGSRHAPSSTSAARWSATREGSVSTAARSRKSAPKPAARPKPISLNVEATILCPVTGAELFALLRMRGLIDSEGDTAEYRLPPVRCHRLYVTAEEHRQLKLLRQSLHSLVAEEQHQDIPSYQRFTVSARSRNAEFAPPPPVLRYMDV,not soluble
2,VAKPKKTQPAATAPRVDVFDAKGKPKTVDASALRIAFADGRSLLVSLPDTADGAITLVAEHADAATHAMLALRPEHHDSITLRIEAEPAAEAEDADDALAGAEMLTLDLTVQHGDALKAAARKALPKQKDIEAWIAPALFADAQLNVRFVDEEEGRTLNHTYRGKDYATNVLTFSYAETEDDPVAADIVLCCPVVEQEAKDQGKPLRAHYAHLIVHGALHAQGYDHEDPAQAEEMEGIETEVLAGLGFPDPYADR,soluble
3,MFKDFFNRTKKKKYLTVQDSKNNDVPAGIMTKCPKCKKIMYTKELAENLNVCFNCDHHIALTAYKRIEAISDEGSFTEFDKGMTSANPLDFPSYLEKIEKDQQKTGLKEAVVTGTAQLDGMKFGVAVMDSRFRMGSMGSVIGEKICRIIDYCTENRLPFILFSASGGARMQEGIISLMQMGKTSVSLKRHSDAGLLYISYLTHPTTGGVSASFASVGDINLSEPKALIGFAGRRVIEQTINEKLPDDFQTAEFLLEHGQLDKVVHRNDMRQTLSEILKIHQEVTK,soluble
4,MGSDKIHHHHHHEKKDKKENDTSAVQATETDCTAAELVTTEPEGEITISEMIDQRIKEEGKIMIYRMCIAESNTPVEITEDLKVKIISYDGDKLKGYKNPDDFLMETRLGDIIHNKVDYSTYNIGTYGGNWKRHRYVSGGDEKYVEEEGYVQREITTDDSGNNAQLETLYSYSKGTLYSRDAGSKEWNQTEKEDSLDIVSFGTFERIKLDGKTYMTFCVRDNLNLIEYDIIPDNKFTENKTVVYDTPGTEKTTVNTVDYLKEYQAVPKEELEQMIVFPGSKKAESSQAAD,not soluble
5,MGSDKIHHHHHHMYVAVKGGEKAIRAAHALQEQKRRGDGRLPELSVEQIGDQLSLAVDRVMTEGGIADRELAALALKQASGDNIEAIFLLRAYRTTLPRLAVSEPINTAEMRLERRISAVYKDIPGGQLLGPTYDYTHRLLDFTLLANGEAPSVQQADGEAEPTPHVFSLLTQQGLAKTEEDRGTPPDDITRTPPVYPCSRSSRLQQLMRGDEGYLLALAYSTQRGYGRNHPFAGEIRSGYVQVEIVPEELGFSVNIGELLLTECEMVNGFVAPQEEPPHFTRGYGLTFGMSERKAMAMALVDRALQAPDYDEEIAGPAQDEEFVLAHADNVEAAGFVSHLKLPHYVDFQAELALLKRLQRENERG,not soluble
6,MASSSSGGAGGAGGASGAPEVKIHNVYMSNVEEEFARIRGFVEDYPYVAMDTEFPGVVATPLGTFRSKEDFNYQQVFCNVNMLKLIQVGFAMVNDKGELPPTGDVWQFNFNFSFAEDMFSHESVEMLRQAGIDFTLLQNNGIPTAVFGELLTTSGLITDPRITWLTFSSGYDFGYLLKSITLGDLPKEESTFFMCHKTLFPTSFDIKILLRTPNCASAKLKGGLQEVADQLDVKRQGVRHQAGSDALLTAATFFKIKKQFFGDNWNQIAPLICGHMFGLGSSLSLFHSSGSTSRLGDETPQGLIGVPQQA,not soluble
7,SSGRSVRAETRSRAKDDIKKVMAATERVRRWEKKWVTVGDTSLRIFKWVPVTETKQIYKPKGAGPAVRELKGFPTDVVLENARSVLLDFQDDNSNQSFLSDAYQSNTKVDSSSNSSPQHVSEAVSPSHPPYYRTEDSQPPTLGQESMEAEREASTTSSEVTDEPPTLIKEDVLSLSTQEEEEAIGAPPLKRVCTEHNSTVS,soluble
8,MGSDKIHHHHHHMRLILYLGKGGVGKTTTSAATAVRAAELGYRTLVVSTDVAHSLADALDTPLGSLPTQITERLWGQEINVLDEVREHWGELRVYLSNLLRRRGVDEVAAEELAIIPGMEEVVSLLHIRRQAREGNFDVVIVDAAPTGETVRLLTMPETFQWYAARVMDWEPTTLKVARPLVKQLVPATDVFAKLERLTKGVEALRATLTDPQISSYRLVVNPERMVIKEAQRASTYLALFGYPVDGVVLNRVLPVDQVEGAFMQELARIQQGYRQMVYDLFRPLPIWESPYFARDLAGIEDLAMVGRRLFGDDDPVKVHFIGKTQEIVKQGDEYVLRLPLPHVEIGKVSMTKRGDELFIEIGNFRRDMLLPTTLAERPARRAYFRNGVLEVFFGPPETLSLKTDAQEESTPS,not soluble
9,GPGSMLHPYIAGFDGLTCVAGTPADTLARNPDTGTTGRGTGSGVEGVFGTSLDVAGQLAGFETLTSASLNNNFLYDGLPSSGVTLREPLLSTHLTRSPTTLSTVGEAAMQPTQNPTQTPQQDPLPDLNTLATNAFFPFPSAAGAASAEGGQQQMATANLYGASQLESIMKASAGDGKSASTAPEPAANNLLGRLTVSTLAAQSATPGTSPQSQPCPVPQFTPLGAGACSNASRSSAPSYSSASVPIGCGPQMCSGDTSFLYPNFVNEMSSVTPPQSVQGHTEGFVAGVTTPPAMPMNSSTMSNKGGSMNDNTSTSLSQATSSGIATSSGQPNDVEVRSNLFVCGLPVSVRDKELLELFEKHGEIESAKVMLDIHTGRIRGIAFVKFKNVEHAENAVDALNGTTVNGHQITVRVANSRAAYLPGNPTNKTFVRNVPLTVSRTTLFEYFAQFGEVTDLSIKSDTAQGRHNPSGRSASTTEDGADDKLNIVFITYSTKEAAAKAAEATHTKTPFKECNGVPLLAKVAEDTVRRMERLSRRQRPATGAEGTREVSTSSSSTNVASMSRFAAPSMGAALPTGMMMPPMMPMAGSFPPGTFVSVPTMGNTPDLTAPTMMPASVAGDHMTALRDASGNPIYSPAQPNPATATGGMAYAMPGNMAQPSIFFSAQPPPPAINQSPPQQSQQQPQAQPQTLYISTPNGFVPAPQQHQQQQQLPQPPPPQQQQPLQFFPAPPLLPQVPQQSQQTMPMPGAAPGQLVYMQTPNGSMMPVMYGGAQPATASMLPTQQMNPYFVMMGGQPPSNQ,soluble
10,MIFNVRGENLEVTPALREYVEKKVGKLERYFDTTPVADVNVRMQVLNNLHIIEVTIPMSRLLLRAEEKHSDMYAAIDLVIEKLERQIRKHKTKVNRKFRQEGSLKYMFKNDLEPMDGMREEILLEEEDDLQVVRKKRFNLKPMDTEEAILQMDMLGHNFFVFSNAISGDTNVVYRRKDGKYGLIEPELEHHHHHH,soluble
11,AVTFAVMVSDAPSLDESKLKTPYSSTIYDKNGKEIAEVGAEKRTYVSIDEIPDVVKEAFIATEDARFYEHHGIDPVRIGGALVANFKDGFGAEGGSTITQQVVKNSLLSHQKTLKRKVQEVWLSIQLERNYSKDEILEMYLNRIYFSPRAYGIGKAAEEFFGVTDLSKLTVEQAATLAGMPQSPTAYNPVKNPDKAEKRRNIVLSLMKKQGFISDSQYNKAKKVAVKDEGVVSQKEYEKASTNKYSAFVEEVMKEIDEKSDVDPSADGLKIYTTLDTKAQDKLDELMDGDTVGFTEGMQGGVTLLDTKNGEVRAIGAGRNQPVGGFNYATQTKAQPGSTIKPILDYGPVIENKKWSTYEQIDDSAYTYSNGKPIRDWDRKYLGPISMRYALAQSRNIPALKAFQAVGKDTAVDFANGLGLGLTKDNVTEAYSIGGFGGNDGVSPLTMAGAYSAFGNNGTYNEPHFVKSIEFNDGTKLDLTPKSKSAMSDYTAFMITDMLKTAVKTGTGQLAQVPGVEVAGKTGTTNFDDNEVKRYNIASGGARDSWFVGYTPQYTAAVWTGMGENEAGKKSLSAEEQKVAKRIFAQLIADVDDGSGSFEKPDSVVEATVEKGSNPAKLAGPNTPSDKKLTEYFVKGTAPSTVSKTYEKEEKEETAKLSGLNVKYDKDNQSLTLSWNYDGDATFAVKQSVDGGSYSEIQNSSAKEAVISGVQPGSVYKFEVTAVSDDGKSTASTSYEVPKAEDDEDKKDQQQTDDEKQDDEKTQDDTQTDDSQKDDGQTDQDQTDDSTNDQDKKQDNTNTNPSDNNNQDQSNDNDNDNSNNQDTSDGDSNSGKNDSTGSDTNKNKTDTSNKTQTNSSSIEKT,not soluble
12,MGSDKIHHHHHHMDGTRERPMRKIIAATFVSLDGVMQAPGGPEEDPVGGFKFGGWTFHYFDEVGGAAMDELFSKPFTLLLGRRTYDIFTAYWPYQKDPIADAFNPATKYVATHRPDTLTWQNTQWLGEDIVAALRRLSKQDGPDLLIQRSADLIQTLLANGLIDEIRLMIFPLLLGKGKRLFGDGAMPAAFKLVKSQTSSTGVIIATYERSGEIEVGSFVMGEPSVAELERRRNWK,not soluble
13,MGSDKIHHHHHHMKRDFLGRTLAVIEDLSVEEQMFLYEKTRELKQRWYSGEDVSDFRIKKRNVGIYIVFVEPSTRTKESFINAAKFHSGPNVKVNVFDSEHSSFNKQESYTDTFSMLTGYSDYSIFVVRTRLEGVCRLLERRISEFASRNGIEVPSFINAGDGKHEHPTQELLDEYTFLEQNGFDNSFIHVALVGDLLHGRTVHSKVNGLKIFKNVKVDLVAPEELMMPEHYVEKMKKNGFEVRIFSSIREYLDQKDVAKIWYFTRLQLERMGEDILEKVHVLREAVTFKKEYLDALPEGVKFYHPLPRHKVYPTIPNFLDTLPLNGWETQARNGYWVRIVLLSMFGGALEAPFDTSKKEEKPEEDFIIPAPITHGSKGVQKEGKRGIKPIENGTVIDHIAKGKTPEEIYSTILKIRKILRLYDVDSADGIFRSSDGSFKGYISLPDRYLSKKEIKKLSAISPNTTVNIIKNSTVVEKYRIKLPPTIYGFEELRCKNENCITNPAHGENASPSFVRNEKGQFICEYCETPHSFEEIWSI,not soluble
14,MFSKLAHLQRFAVLSRGVHSSVASATSVATKKTVQGPPTSDDIFEREYKYGAHNYHPLPVALERGKGIYLWDVEGRKYFDFLSSISAVNQGHCHPKIVNALKSQVDKLTLTSRAFYNNVLGEYEEYITKLFNYHKVLPMNTGVEAGETACKLARKWGYTVKGIQKYKAKIVFAAGNFWGRTLSAISSSTDPTSYDGFGPFMPGFDIIPYNDLPALERALQDPNVAAFMVEPIQGEAGVVVPDPGYLMGVRELCTRHQVLFIADEIQTGLARTGRWLAVDYENVRPDIVLLGKALSGGLYPVSAVLCDDDIMLTIKPGEHGSTYGGNPLGCRVAIAALEVLEEENLAENADKLGIILRNELMKLPSDVVTAVRGKGLLNAIVIKETKDWDAWKVCLRLRDNGLLAKPTHGDIIRFAPPLVIKEDELRESIEIINKTILSF,soluble
15,MGSDKIHHHHHHMRELRYNPLTGQWIMVSAVRKNRPWRPRNFCPFCPGSEETGYGWEVLLLPNRFPMLSFDAPKPKNEDFYKKARAMGQCSVIVETPKHELRDLDELPREQMVKIVRMWIKITETLKENRNVAYLAIFRNKGEEIGVSLKHPHGQLYALPYIPLKVRLKIENSRRYYKRTGECIFCRIIKEEEKNGERTIYENDNFIVFMPFFASWPFEVHIYPKRHIQYLTDLKVNEIEDLAEVIQVTTATLNAVLDRQMPYAMMIFQAPFKGNYPFYHLHIEFYPILRDNGKVKYTAGIELGTWEFTYDGIPEENARKLKEACKKVSQRMSLKGKCI,not soluble
16,TSITPSSQDICRICHCEGDDESPLITPCHCTGSLHFVHQACLQQWIKSSDTRCCELCKYEFIMETKL,soluble
